These results are taken from patent US20040115741A1.

This assay addresses HM1.24 antigen (human) (UniProt Q10589). Description: flow cytometry on KPMM2 cells, control antibody. For orientation: Flow cytometry measures light scatter and fluorescence of single cells or particles in a stream.
Chain of UniProt Q10589 (Q10589 1-161 limits assumed): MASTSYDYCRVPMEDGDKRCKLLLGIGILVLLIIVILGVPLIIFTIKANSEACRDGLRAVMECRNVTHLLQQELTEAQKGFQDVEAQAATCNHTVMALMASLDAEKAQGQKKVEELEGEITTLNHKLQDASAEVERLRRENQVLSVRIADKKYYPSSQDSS

For the substance “control antibody human IgG1 (hIgG1), Human IgG1, Kappa (SIGMA Cat. No. I3889)”, the Geo Mean of fluorescence intensity came to 17.3.
